Experimental findings from patent US20170082635A1 are described below.

One test has as its target Histone H3.2 (human) (UniProt Q71DI3). Put plainly: in vivo azide-A-DSBSO XL-MS, HEK 293 cells.
Another test addresses Histone H4 (human) (UniProt P62805). As to the kind of experiment: in vivo azide-A-DSBSO XL-MS, HEK 293 cells.

With “Histone H2B (core histone, isoforms not told apart)”, the results for the unique cross-linked peptides in the test with Histone H3.2 (human) and with Histone H4 (human) were 8 peptides and 10 peptides, respectively.
